experiment: soluble on expression in E. coli; label from the status in PepcDB or PDB records

| Sequence | soluble on expression in E. coli |
| --- | --- |
| MKKKTTLSEEDQALFRQLMAGTRKIKQDTIVHRPQRKKISEVPVKRLIQEQADASHYFSDEFQPLLNTEGPVKYVRPDVSHFEAKKLRRGDYSPELFLDLHGLTQLQAKQELGALIAACRREHVFCACVMHGHGKHILKQQTPLWLAQHPHVMAFHQAPKEYGGDAALLVLIEVEEWLPPELP | not soluble |
| MKKLIINYTELVDYLLENRGMDGYIYFYESMETEQGIVISFSTFDTGDSIYRMKFCPSDHGYDTSLEPGSYSQSEYGTSFEEEDVEGYIAGLDEIIADKYKEFYDEDVEVVFVD | soluble |
| MKKMAFAAIALGLVACAPAQQQRLVYPPTVEVERIQLTSFSLPAPGRAAVAGVRLELNVDNPNPLPVRLVQLAGVLVLDGQEAGTVTVPDIRLPGQGRARQVAQLTLPVTFKTATTFLNIARGQEVSYRLDGTLTADLGPLGQPTFGPFTLTQGVWKQAPLSVF | soluble |
| MKKMFLILASAVVSLTACSKDSGDDDSPPIEKQPFNAVIKDGFKDENGVDLLPPRNIGNIKVGDYIPYNVTITDEVAEQEGETYRVVASTYDEGTHQERSVSYDIYLADKEDPTKMVLLENPEQLTFNKRGTYSFFIYPKEAGTYNLRFLLEKSVNNQKIGTSAIPIVTFNAVRITAYSHGYFTGKWKWEWSDSFIPILEEHSVNRRKFFFKIDDGSTEKDKYLQPEKAGIFYFTEYNGDNRGPLSFTVGAEYEYYPEQERTRAIQYLIFLLLK | not soluble |
| MKKQVVEVLVEGGKATPGPPLGPAIGPLGLNVKQVVDKINEATKEFAGMQVPVKIIVDPVTKQFEIEVGVPPTSQLIKKELGLEKGSGEPKHNIVGNLTMEQVIKIAKMKRSQMLALTLKAAAKEVIGTALSMGVTVEGKDPRIVQREIDEGVYDELFEKAEKE | soluble |
| MKKRAGIWAALLLAAVMLAGCGNPADQKDSKAKQKTEVFPVTIDDASNQDVTIKKEPKKIVSLMPSNTEITYALGLGDKVVGVTTNDTYPKEVKKVEKVGDMNVNVEKVISLKPDLVLAHESSMSASADAIKQLKDAGITVLTVNDAQSFSEVYKSIEMIGEAGGAEKKADQLVKSMKSDLKDIQEKAKTISKDEEKSVFIEVSPDPDIYTTGKDTFMNEMLNVIHAKNAAADQTGWVQMTDEAIVKLNPDAIVTTDGVKAKAVEKRDGWSEINAVKHHRVYDVDPDLVTRSGPRLIEGVEELAESIYPDTFKE | not soluble |
| MKKRHLLSLLALGISTACYGETYPAPIGPSQSDFGGVGLLQTPTARMAREGELSLNYRDNDQYRYYSASVQLFPWLETTLRYTDVRTRQYSSVEAFSGDQTYKDKAFDLKLRLWEESYWLPQVAVGARDIGGTGLFDAEYLVASKAWGPFDFTLGLGWGYLGTSGNVKNPLCSASDKYCYRDNSYKQAGSIDGSQMFHGPASLFGGVEYQTPWQPLRLKLEYEGNNYQQDFAGKLEQKSKFNVGAIYRVTDWADVNLSYERGNTFMFGVTLRTNFNDLRPSYNDNARPQYQPQPQDAILQHSVVANQLTLLKYNAGLADPQIQAKGDTLYVTGEQVKYRDSREGIIRANRIVMNDLPDGIKTIRITENRLNMPQVTTETDVASLKNHLAGEPLGHETTLAQKRVEPVVPQSTEQGWYIDKSRFDFHIDPVLNQSVGGPENFYMYQLGVMGTADLWLTDHLLTTGSLFANLANNYDKFNYTNPPQDSHLPRVRTHVREYVQNDVYVNNLQANYFQHLGNGFYGQVYGGYLETMFGGAGAEVLYRPLDSNWAFGLDANYVKQRDWRSAKDMMKFTDYSVKTGHLTAYWTPSFAQDVLVKASVGQYLAGDKGGTLEIAKRFDSGVVVGGYATITNVSKEEYGEGDFTKGVYVSVPLDLFSSGPTRSRAAIGWTPLTRDGGQQLGRKFQLYDMTSDRSVNFRLEHHHHHH | not soluble |
| MKKSKRKNAQAQEAQETEVLVQEEAEELPEFPEGEPDPDLEDPDLTLEDDLLDLPEEGEGLDLEEEEEDLPIPKISTSDPVRQYLHEIGQVPLLTLEEEVELARKVEEGMEAIKKLSEITGLDPDLIREVVRAKILGSARVRHIPGLKETLDPKTVEEIDQKLKSLPKEHKRYLHIAREGEAARQHLIEANLRLVVSIAKKYTGRGLSFLDLIQEGNQGLIRAVEKFEYKRRFKFSTYATWWIRQAINRAIADQARTIRIPVHMVETINKLSRTARQLQQELGREPTYEEIAEAMGPGWDAKRVEETLKIAQEPVSLETPIGDEKDSFYGDFIPDEHLPSPVDAATQSLLSEELEKALSKLSEREAMVLKLRKGLIDGREHTLEEVGAFFGVTRERIRQIENKALRKLKYHESRTRKLRDFLD | soluble |
| MKKSNIKTLEQFKDQNYGKKGTAKRDSLEMGYDTFKIGALIQEARIEKGMTQEELAIKCGTTKSYISRIENNIKEVRISTLQKIVELGFGGQLQLSIKF | not soluble |
| MKKTAIAIAVALAGFATVAQAEVKLHESGAGLVKPGASVEISCKATGYTFSSFWIEWVKQRPGHGLEWIGEILPGRGRTNYNEKFKGKATFTAETSSNTAYMQLSSLTSEDSAVYYCATGNTMVNMPYWGQGTTVTVSSASTKGPSVFPLAPSSKSTSGGTAALGCLVKDYFPEPVTVSWNSGALTSGVHTFPAVLQSSGLYSLSSVVTVPSSSLGTQTYICNVNHKPSNTKVDKKVEPKSCSAWSHPQFEK | soluble |
| MKKTIISTLVIGLVSGCSNTNLLKDNLASEQSVINLSKSSNEAKSRNIEFLSGAYLSERKVPKHDIKFSGKYVEFESKSPIELIDVLDGLSKQYNIQYVFSDELEDENSEENKKSSGSSSAKKIKYSGPLAGFFDYLSSAYNMHFEFGHNNLVKAYHYKNQVFNLQQYFDDNKFSSSMQIGGTSGTSSGLKGTADTAIESNSWEKIDEFLSASLGETGKFTIFEDYSLVTVKARPDKFLLLHTFFDKLINESKMQIAVDYRVVSLSEERLNQLAAKFGIENAGKYSITSDMVDAISLSQVGGGLGASYRSASARLDAVVNELSQEVMHEGHFIGIPNRVMPLNVTTNSKYISSIETTKDTNTDEETRTVKVSDLVTGFSMMVMPKILDDGRIQISSGFSRKQLVSIGTAQGITLPTVDENESMNTVTMNPGEVRLAMLFKDNYIQNSNGVQLLGGGTENKKSARYIAVLVGASSYKTNDLASNRVNIYD | not soluble |
| MKKTKVHLISGFLGTGKTTALKSLMAQKDPNEKWVIIVNEFGEIGIDGAVLSDNGIPVAEIAGGCLCCTAGPQMGVTVQKMLRDAKPDRLMIEASGLAHAASVIDELKTKPLDSLLEIGAVFTVVDPRQFINPDYAQQALYKDQIGICDVLVASKTDLCTPEQLAEFHDKAAKLFPPKAKVVEVQNAQLDIQWLDIPVIEKSRYRLKALPDNTMGFQSQGFTFPAGRDFDGEKLTNFFNDLPNMTEGLVRAKGVFQVLGTWVWLNWVDGQWGANQVSWRRDSRFELIAKSFDADLIEQKLKDALELEHHHHHH | not soluble |
| MKKTLTVTLSSIAAFIAINTAANAQESETSQLDTYATGDVITNQSNLGIYIVKPGDSLYKIALEHNLSLEELYALNPGVEPLIFPGDEIVVSETAFEQFNNTNTFVNYETNYIPVGYNNVSTDTSNTTYDNYDSESTDTYSVSNAYDGLRSVSNSGNLYTTGQCTYYAFDRRAELGKPIGSLWGNASNWAYSANQAGFNVDHTPEVGAVFQSGPGQNGAGAYGHVGVVESINSNGSVTVSEMNWNGGVNVKSYRTISNPNSYNYIHLEHHHHHH | not soluble |
| MKKVSPSYLKHQFLIAMPHMHDENFAQTLTYVVEHNANGAMGLVINRPQSLTLADVLEQLRPELPAPKRCQEIAIHAGGPVQTDRGFVLHPSGQTFQATVDLPGGISLSTSQDVLFSIADGYGPDQNVITLGYAGWDAGQLDAEMADNAWLTCSFDPAILFDVDSDQRLDAAARRLGINLALISTQAGHAAAALEHHHHHH | not soluble |
| MKKVVTVCPYCASGCKINLVVDNGKIVRAEAAQGKTNQGTLCLKGYYGWDFINDTQILTPRLKTPMIRRQRGGKLEPVSWDEALNYVAERLSAIKEKYGPDAIQTTGSSRGTGNETNYVMQKFARAVIGTNNVDCCARVCHGPSVAGLHQSVGNGAMSNAINEIDNTDLVFVFGYNPADSHPIVANHVINAKRNGAKIIVCDPRKIETARIADMHIALKNGSNIALLNAMGHVIIEENLYDKAFVASRTEGFEEYRKIVEGYTPESVEDITGVSASEIRQAARMYAQAKSAAILWGMGVTQFYQGVETVRSLTSLAMLTGNLGKPHAGVNPVRGQNNVQGACDMGALPDTYPGYQYVKDPANREKFAKAWGVESLPAHTGYRISELPHRAAHGEVRAAYIMGEDPLQTDAELSAVRKAFEDLELVIVQDIFMTKTASAADVILPSTSWGEHEGVFTAADRGFQRFFKAVEPKWDLKTDWQIISEIATRMGYPMHYNNTQEIWDELRHLCPDFYGATYEKMGELGFIQWPCRDTSDADQGTSYLFKEKFDTPNGLAQFFTCDWVAPIDKLTDEYPMVLSTVREVGHYSCRSMTGNCAALAALADEPGYAQINTEDAKRLGIEDEALVWVHSRKGKIITRAQVSDRPNKGAIYMTYQWWIGACNELVTENLSPITKTPEYKYCAVRVEPIADQRAAEQYVIDEYNKLKTRLREAALA | soluble |
| MKKWKVRSALVALIVLLAGCSSNAQYNSSASGNVGTAWGGDVHSTVQGVSAERAWRDPAEMIVISYSTNVPSGYDRVYSIRINELEYAIRDGNFNSLPITRVYDSSNNEPRYIVHARVGMNYQLYVRNYSRNTNYEIVATVDGLDVLNGKQGSLNNNGYIVNAGDSLAIKGFRKDKHTEAAFQFANVADSYAANSAQGDVRNTGVIGFAAFELQGQAQNALPPCSGQAFPADNNGYAPPPCRK | not soluble |
| MKLAAKTFTPSTADLPFTDAGASEDSGMANKPGEPAFQLWLDVKKVVFPTTSEPSYVNLRLHNPTDKRITFKVRCTSAELFRVQPPIAFINAGATVNLVMWSANTHLQPEKKHYFAFYHKNASPSARQSPPLWKDGLKDAEGVRRIPVVFLPPSS | not soluble |
| MKLAAMIKKMCPSDSELSIPAKNCYRMVILGSSKVGKTAIVSRFLTGRFEDAYTPTIEDFHRKFYSIRGEVYQLDILDTSGNHPFPAMRRLSILTGDVFILVFSLDNRDSFEEVQRLRQQILDTKSCLKNKTKENVDVPLVICGNKGDRDFYREVDQREIEQLVGDDPQRCAYFEISAKKNSSLDQMFRALFAMAKLPSEMSPDLHRKVSVQYCDVLHKKALRNKKLLRAGSGGGGGDPGDAFGIVAPFARRPSVHSDLMYIREKASAGSQAKDKERCVIS | soluble |
| MKLALVNRQVILPESGTESFQCHASTLVRLPCGTLVAAWFAGLREGSEDTAIWLSRYEHNIWTTPQRVAAREGEAHWNPVLFYPSDKLWLFYKVGSDVHVWKTWFITSSDRGFTWSTPAPLVNDDILPRGPVKNKLLLASNGAWIAPGSIESPERWRAFVDRSSDEGKHWSISFVPLEPDNAISGTNVALWDGIKKGRLWECCLENLLRWDGVIQPTLWESSPGHIHMLLRSTRGAIFRSDSIDYGATWSVARATSLPNNNSGIDLVSMQDGTLILALNPVNGNWGKRYPLSLIASQDNGESWLPLLDLESDHGEYSYPAIISEGGIVHITYTWNRKNIVYCRLQTVLEHHHHHH | not soluble |
| MKLAVLGTGMIVKEVLPVLQKIDGIDLVAILSTVRSLTTAKDLAKAHHMPLATSKYEAILGNEEIDTVYIGLPNHLHFAYAKEALLAGKHVICEKPFTMTAGELDELVVIARKRKLILLEAITNQYLSNMTFIKEHLDQLGDIKIVECNYSQYSSRYDAFKRGDIAPAFNPKMGGGALRDLNIYNIHFVVGLFGRPKTVQYLANVEKGIDTSGMLVMDYEQFKVVCIGAKDCTAEIKSTIQGNKGSLAVLGATNTLPQVQLSLHGHEPQVINHNKHDHRMYEEFVAFRDMIDQRDFEKVNQALEHSRAVMAVLERAVHS | not soluble |

— the DeepSol protein solubility set
